Assay results from patent US20170114412A1.

Biological target: Robo2, human, full-length, non-tagged (human) (UniProt Q9HCK4)
Experiment: cell-based or functional assay

Chain of Robo2, human, full-length, non-tagged (human) (Q9HCK4 22-1378 limits assumed, form in doubt): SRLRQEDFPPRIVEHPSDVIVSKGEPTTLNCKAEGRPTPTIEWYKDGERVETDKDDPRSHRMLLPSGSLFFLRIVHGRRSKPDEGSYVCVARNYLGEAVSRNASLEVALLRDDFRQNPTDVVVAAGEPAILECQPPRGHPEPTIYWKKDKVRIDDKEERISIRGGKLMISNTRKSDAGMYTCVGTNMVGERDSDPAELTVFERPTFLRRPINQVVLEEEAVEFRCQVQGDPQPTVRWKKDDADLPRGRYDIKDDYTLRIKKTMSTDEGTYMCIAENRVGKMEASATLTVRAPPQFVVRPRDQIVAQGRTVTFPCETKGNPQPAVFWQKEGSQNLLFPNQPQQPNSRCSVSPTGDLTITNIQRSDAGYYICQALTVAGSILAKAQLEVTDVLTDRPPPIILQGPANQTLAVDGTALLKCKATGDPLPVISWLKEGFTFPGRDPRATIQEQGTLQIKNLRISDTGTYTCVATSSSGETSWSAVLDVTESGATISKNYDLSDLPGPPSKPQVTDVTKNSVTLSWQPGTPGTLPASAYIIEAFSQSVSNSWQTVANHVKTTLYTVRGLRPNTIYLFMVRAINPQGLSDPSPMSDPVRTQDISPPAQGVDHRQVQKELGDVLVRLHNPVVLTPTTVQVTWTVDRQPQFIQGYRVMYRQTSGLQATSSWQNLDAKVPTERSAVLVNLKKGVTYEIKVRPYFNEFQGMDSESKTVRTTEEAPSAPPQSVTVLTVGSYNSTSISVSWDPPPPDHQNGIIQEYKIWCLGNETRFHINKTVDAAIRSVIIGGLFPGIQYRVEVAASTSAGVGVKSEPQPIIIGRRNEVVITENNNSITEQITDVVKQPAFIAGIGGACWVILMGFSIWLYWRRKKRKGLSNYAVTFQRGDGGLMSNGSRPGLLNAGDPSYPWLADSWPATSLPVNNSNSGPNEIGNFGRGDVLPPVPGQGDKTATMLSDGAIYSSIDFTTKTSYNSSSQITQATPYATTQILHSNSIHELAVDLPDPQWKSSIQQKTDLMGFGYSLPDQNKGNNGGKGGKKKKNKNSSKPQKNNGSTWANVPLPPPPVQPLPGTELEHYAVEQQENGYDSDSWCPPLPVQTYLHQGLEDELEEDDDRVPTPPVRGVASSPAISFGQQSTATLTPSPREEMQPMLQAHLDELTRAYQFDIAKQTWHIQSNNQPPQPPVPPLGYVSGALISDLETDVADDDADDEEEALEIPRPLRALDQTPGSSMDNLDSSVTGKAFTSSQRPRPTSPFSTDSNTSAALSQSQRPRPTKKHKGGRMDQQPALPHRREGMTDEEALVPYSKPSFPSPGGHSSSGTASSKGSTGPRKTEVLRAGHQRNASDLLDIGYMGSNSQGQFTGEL

Slit2 (myc-tagged), in conditioned medium of stably transfected cells (ligand)
percentage of CD16/7-NCD clustered HEK cells with F-actin tails (control medium without Slit2: ~80%): 40%
